Residue numbers refer to the chain shown, from its start.
What was measured:
mouse MSLN-His-Avi [1] = target: T1, mouse MSLN-His-Avi (mouse, UniProt Q61468 298-600, single biotin (BirA) in the biotinylated form); assay: ratio of the two SPR KD
T1 construct: Monomeric, made in HEK293-6E; also called mMSLN-His-Avi
T1 sequence: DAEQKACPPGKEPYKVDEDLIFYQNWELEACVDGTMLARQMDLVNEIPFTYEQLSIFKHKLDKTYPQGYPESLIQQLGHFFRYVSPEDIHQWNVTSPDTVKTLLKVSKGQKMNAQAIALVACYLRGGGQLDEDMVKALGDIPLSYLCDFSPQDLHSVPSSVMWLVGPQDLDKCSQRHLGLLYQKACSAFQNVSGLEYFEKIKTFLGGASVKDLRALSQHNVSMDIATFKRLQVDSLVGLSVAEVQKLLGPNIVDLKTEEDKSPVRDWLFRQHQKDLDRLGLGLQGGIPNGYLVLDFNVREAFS
Method: (§1) The procedure for binding to immobilised MSLN was similar to the method described in section 2.1.4 with mMSLN-His-Avi immobilised at 50 RU. To determine the affinity for soluble MSLN the mAb² were captured via anti-human Fc. Briefly, 25 μg/ml anti-human IgG (Fc) antibody (GE Healthcare, Human Antibody Capture Kit, BR100839) was coated on flow cells 1, 2, 3 and 4 of a Biacore sensor chip CM5 (GE Healthcare, BR100530) achieving a final response of approximately 750 RU. The mAb² clones, diluted in HBS-EP buffer (GE Healthcare, BR100188) at 50 nM, were injected individually on flows cell 2, 3 and 4 at 30 μl/min to achieve a response of approximately 100 RU. […] Regeneration was achieved by injecting 3 M magnesium chloride (GE Healthcare, Human Antibody Capture Kit, BR100839) for 30 seconds at a rate of 30 μl/min.

mouse MSLN-His-Avi [2] = target: T1, mouse MSLN-His-Avi; assay: SPR (Biacore), mMSLN-His-Avi immobilised at 50 RU
Method: as §1

mouse MSLN-His-Avi [3] = target: T1, mouse MSLN-His-Avi; assay: SPR (Biacore), mAb^2 captured via anti-human Fc, mMSLN-His-Avi in solution
Method: as §1

[4] = target: cell surface human mesothelin (MSLN) (human, UniProt Q13421 296-598); assay: cell-based or functional assay
[5] = target: T2, OX40 on activated T cells (UniProt P43489 29-277, limits assumed); assay: cell-based or functional assay
T2 sequence (looked up): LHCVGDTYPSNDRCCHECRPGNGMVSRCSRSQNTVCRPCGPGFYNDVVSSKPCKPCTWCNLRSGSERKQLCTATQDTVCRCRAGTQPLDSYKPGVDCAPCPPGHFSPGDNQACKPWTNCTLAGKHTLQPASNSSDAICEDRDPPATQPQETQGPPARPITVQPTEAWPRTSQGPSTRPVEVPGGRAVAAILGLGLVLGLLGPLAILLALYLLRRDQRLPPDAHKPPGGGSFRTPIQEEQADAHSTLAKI

human MSLN-His-Avi [6] = target: T3, human MSLN-His-Avi (human, UniProt Q13421 296-598, single biotin (BirA) in the biotinylated form); assay: SPR as Example 4.1 (about 40 RU instead of 100), MSLN in solution
T3 construct: Monomeric, made in HEK293-6E; Used both immobilised and in solution; also called hMSLN-His-Avi; biotinylated hMSLN-His-Avi

CD137 on CD8+ T cells = CD137 on CD8+ T cells (human, UniProt Q07011 24-255); assay: cell-based or functional assay
human MSLN-His-Avi [7] = target: T3, human MSLN-His-Avi; assay: SPR as Example 4.1 (about 40 RU instead of 100), MSLN immobilised
human MSLN-His-Avi [8] = target: T3, human MSLN-His-Avi; assay: ratio of the two SPR KD

T3 sequence (Q13421 other isoform, or with tags, fused parts or gaps): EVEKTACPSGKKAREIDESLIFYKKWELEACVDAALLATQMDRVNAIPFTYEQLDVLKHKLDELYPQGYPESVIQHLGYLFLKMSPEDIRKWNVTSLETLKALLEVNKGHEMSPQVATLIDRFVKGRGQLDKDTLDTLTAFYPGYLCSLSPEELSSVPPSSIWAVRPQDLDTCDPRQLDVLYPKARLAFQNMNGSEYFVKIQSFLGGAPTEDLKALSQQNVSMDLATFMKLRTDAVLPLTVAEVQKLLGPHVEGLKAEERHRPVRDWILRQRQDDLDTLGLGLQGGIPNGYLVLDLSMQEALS
Chain of cell surface human mesothelin (MSLN) (Q13421 other isoform, or with tags, fused parts or gaps limits assumed): as the sequence (Q13421 other isoform, or with tags, fused parts or gaps) above
Chain of CD137 on CD8+ T cells (Q07011 24-255): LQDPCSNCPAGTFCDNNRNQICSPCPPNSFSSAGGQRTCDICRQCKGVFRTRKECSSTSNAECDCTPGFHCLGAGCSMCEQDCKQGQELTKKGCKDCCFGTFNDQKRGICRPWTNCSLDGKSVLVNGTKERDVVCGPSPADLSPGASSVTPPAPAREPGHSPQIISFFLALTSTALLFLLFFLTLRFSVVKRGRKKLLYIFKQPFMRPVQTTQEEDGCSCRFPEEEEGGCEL

B1: FS22-063-AA/FS28m-228 mAb^2 (bispecific antibody, human IgG1, kappa, L234A L235A, V domains shown)
VH: EVQLLESGGGLVQPGGSLRLSCAASGFTFSTYFMVWVRQAPGKGLEWVSMISPKSSNTYYADSVKGRFTISRDNSKNTLYLQMNSLRAEDTAVYYCARWFTPARFDYWGQGTLVTVSS
VL: EIVLTQSPGTLSLSPGERATLSCRASQSVSSSYLAWYQQKPGQAPRLLIYGASSRATGIPDRFSGSGSGTDFTLTISRLEPEDFAVYYCQQPFPFSFTFGQGTKVEIKR
notes: LALA
Ratio of KD in solution/immobilised for mouse MSLN-His-Avi (mouse MSLN-His-Avi [1]): 31.9
Kd (mouse MSLN-His-Avi [2]): 7.9 nM
Kd (mouse MSLN-His-Avi [3]): 252 nM

B2: FS22m-063-AA/FS28m-228-010 mAb^2 (bispecific antibody, human IgG1, kappa, L234A L235A, V domains shown)
VH: B1 VH with W99Y, F100H, T101I, P102S, A103P
VL: B1 VL
notes: Anti-mouse CD137 Fcab with anti-mouse MSLN Fab; LALA; also called CD137/MSLN mAb^2
Ratio of KD in solution/immobilised for mouse MSLN-His-Avi (mouse MSLN-His-Avi [1]): 23.2
Kd (mouse MSLN-His-Avi [2]): 2.6 nM
Kd (mouse MSLN-His-Avi [3]): 60.2 nM

B3: OX40 (FS20-022-049)/FS28-256-271 mAb^2 (bispecific antibody, human IgG1, kappa, L234A L235A)
heavy: EVQLLESGGGLVQPGGSLRLSCAASGFTFTHTYMSWVRQAPGKGLEWVSAISPTYSTTNYADSVKGRFTISRDNNKNTLYLQMNSLRAEDTAVYYCARYNAYHAALDYWGQGTLVTVSSASTKGPSVFPLAPSSKSTSGGTAALGCLVKDYFPEPVTVSWNSGALTSGVHTFPAVLQSSGLYSLSSVVTVPSSSLGTQTYICNVNHKPSNTKVDKKVEPKSCDKTHTCPPCPAPEAAGGPSVFLFPPKPKDTLMISRTPEVTCVVVDVSHEDPEVKFNWYVDGVEVHNAKTKPREEQYNSTYRVVSVLTVLHQDWLNGKEYKCKVSNKALPAPIEKTISKAKGQPREPQVYTLPPSRDEYWDQEVSLTCLVKGFYPSDIAVEWESNGDEQFAYKTTPPVLDSDGSFFLYSKLTVDQYRWNPADYFSCSVMHEALHNHYTQKSLSLSPG
light: EIVLTQSPGTLSLSPGERATLSCRASQSVSSSYLAWYQQKPGQAPRLLIYGASSRATGIPDRFSGSGSGTDFTLTISRLEPEDFAVYYCQQTVPYPYTFGQGTKVEIKRTVAAPSVFIFPPSDEQLKSGTASVVCLLNNFYPREAKVQWKVDNALQSGNSQESVTEQDSKDSTYSLSSTLTLSKADYEKHKVYACEVTHQGLSSPVTKSFNRGEC
T cell activation assay (IL-2 release), NCI-H226 cells for crosslinking: EC50 [4]: 0.11 nM
T cell activation assay (IL-2 release), NCI-H226 cells for crosslinking: EC50 [5]: 0.11 nM

B4: FS28-256-271 (in CD137 mAb^2 format) (bispecific antibody, V domains shown)
VH: EVQLLESGGGLVQPGGSLRLSCAASGFTFTHTYMSWVRQAPGKGLEWVSAISPTYSTTNYADSVKGRFTISRDNNKNTLYLQMNSLRAEDTAVYYCARYNAYHAALDYWGQGTLVTVSS
VL: EIVLTQSPGTLSLSPGERATLSCRASQSVSSSYLAWYQQKPGQAPRLLIYGASSRATGIPDRFSGSGSGTDFTLTISRLEPEDFAVYYCQQTVPYPYTFGQGTKVEIK
Kd (human MSLN-His-Avi [6]): 18.2 nM
CD8+ T cell activation assay (IL-2 release), NCI-H226 cells for crosslinking: EC50 (CD137 on CD8+ T cells): 0.096 nM
CD8+ T cell activation assay (IL-2 release), NCI-H226 cells for crosslinking: EC50 [4]: 0.096 nM
Kd (human MSLN-His-Avi [7]): 5.9 nM
Ratio of KD in solution/immobilised for human MSLN-His-Avi (human MSLN-His-Avi [8]): 3

— US20220267421A1 (INVOX PHARMA, published 2022)
